In paper PMC2966067:

Molecular target: GST-Pin1 (UniProt Q13526)
Experiment: pull-down

percent reduction of binding against wild type (densitometry) [%]	percent of wild-type binding (densitometry) [%]	Substance
70		FLAG-MEF2C S98/110A (natural protein)
	10	FLAG-MEF2C S98A/S110A/S240A/S388A (natural protein)
